Some targets named below: 53BP1 Tudor Y1502A (H. sapiens, UniProt Q12888 1484-1603, Y1502A); 53BP1 Tudor Y1500A (H. sapiens, UniProt Q12888 1484-1603, Y1500A); 53BP1 Tudor Y1523S (H. sapiens, UniProt Q12888 1484-1603, Y1523S); 53BP1 Tudor W1495A (H. sapiens, UniProt Q12888 1484-1603, W1495A); 53BP1 Tudor D1521A (H. sapiens, UniProt Q12888 1484-1603, D1521A); 53BP1 Tudor Y1523A (H. sapiens, UniProt Q12888 1484-1603, Y1523A).

Holding throughout (test): ITC
For test [1], the target named is T1, 53BP1 tandem Tudor domain (1484-1603) (H. sapiens, UniProt Q12888 1484-1603).
T1 chain: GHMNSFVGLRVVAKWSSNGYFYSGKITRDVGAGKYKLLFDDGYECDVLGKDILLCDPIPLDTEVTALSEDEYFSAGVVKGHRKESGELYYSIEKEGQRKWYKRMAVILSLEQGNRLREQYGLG

Where no end group is shown, it is not given here. Me2 = dimethyl-lysine

53BP1 Tudor W1495A, sequence (Q12888 other isoform, or with tags, fused parts or gaps W1495A | W1495A): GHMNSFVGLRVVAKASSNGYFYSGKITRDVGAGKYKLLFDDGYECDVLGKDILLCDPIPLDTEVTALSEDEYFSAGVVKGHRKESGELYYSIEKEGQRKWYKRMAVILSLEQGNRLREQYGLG
53BP1 Tudor D1521A, sequence (Q12888 other isoform, or with tags, fused parts or gaps D1521A | D1521A): as the sequence (Q12888 other isoform, or with tags, fused parts or gaps W1495A | W1495A) above, with A15W, D41A counted along it
53BP1 Tudor Y1502A, sequence (Q12888 other isoform, or with tags, fused parts or gaps Y1502A | Y1502A): as the sequence (Q12888 other isoform, or with tags, fused parts or gaps W1495A | W1495A) above, with A15W, Y22A counted along it
53BP1 Tudor Y1500A, sequence (Q12888 other isoform, or with tags, fused parts or gaps Y1500A | Y1500A): as the sequence (Q12888 other isoform, or with tags, fused parts or gaps W1495A | W1495A) above, with A15W, Y20A counted along it

B1: H4K20me2 (peptide)
chain: KRHRK(Me2)VLRDN
On to B1, for which the dissociation constant (Kd) in the test with 53BP1 Tudor Y1502A was 151 µM; with 53BP1 Tudor Y1500A, 163 µM; with 53BP1 Tudor Y1523S it was 65.8 µM; in test [1], 19.7 µM; with 53BP1 Tudor W1495A it was greater than 1500 µM; in the test with 53BP1 Tudor D1521A, greater than 1500 µM. The Kd with 53BP1 Tudor Y1523A worked out at 7.8 µM.

The term Kd denotes a measure of binding affinity in units of concentration. A lower Kd goes with higher affinity.

Values taken from paper PMC5974088 (2018).
